In patent US20200055941A1 (MILTENYI BIOTEC, published 2020):

T1: Recombinant Human Fc gamma RIIb/CD32b (human, UniProt P31994 46-217)
T1 construct: also called FcγRIIb; CD32b/c
T1 sequence (looked up): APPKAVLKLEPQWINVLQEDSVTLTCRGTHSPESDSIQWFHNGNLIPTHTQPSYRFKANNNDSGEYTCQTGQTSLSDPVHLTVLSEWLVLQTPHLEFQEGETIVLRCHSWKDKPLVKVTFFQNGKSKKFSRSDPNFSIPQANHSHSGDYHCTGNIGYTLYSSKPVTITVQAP


Assays:
[1] = biological target: T1, Recombinant Human Fc gamma RIIb/CD32b; test: ELISA, plates coated with recombinant CD32b/c, anti-human kappa-HRP
Protocol: To examine more precisely the CD32b/c binding of MB101, the wt IgG₄ and the two single mutation variants, linear dilutions of the mAbs were incubated with ELISA plates previously coated with recombinant CD32b/c. FcR-bound anti-BDCA2 Ab were probed with anti-human kappa-HRP and TMB-substrate.
(§1) ELISA plates were coated with Fc gamma receptors I, IIa, IIb, IIIa and IIIb with 5 μg/mL each in coating buffer overnight at 4° C. Coated plates were washed 3-fold with 1×PBS 0.05% Tween 20 and blocked with 5% BSA in 1×PBS. Antibodies were applied to ELISA plates with 50 μL/well at serial 2-fold dilution of antibody solution and incubated at room temperature for 1 h. As blank controls, respective antibody concentrations were also applied to wells lacking coated Fc gamma receptors, in order to subtract unspecific binding from resulting signals. After washing (see above), the detection antibody anti-human kappa-HRP (FE 110316.07) 1:4000 in 1×PBS was applied with 50 μL/well and incubated again at RT for 1 h. After additional washing (see above), for assay development 50 μL/well TMB (CH111027.37) were applied and stopped after approx. 5 minutes with 50 μL/well 10% H₂SO₄. The developed plate was then analyzed via ELISA reader at 450 nm wavelength.

[2] = biological target: T1, Recombinant Human Fc gamma RIIb/CD32b; test: ELISA, plate-bound recombinant receptor, anti-human kappa-HRP
Protocol: as §1

[3] = biological target: T2, Recombinant Human Fc gamma RIIIb/CD16b (human, UniProt O75015 17-200); test: as above
T2 construct: also called Fcγ RIIIb/c; CD16b/c
T2 sequence (O75015 17-200 limits assumed): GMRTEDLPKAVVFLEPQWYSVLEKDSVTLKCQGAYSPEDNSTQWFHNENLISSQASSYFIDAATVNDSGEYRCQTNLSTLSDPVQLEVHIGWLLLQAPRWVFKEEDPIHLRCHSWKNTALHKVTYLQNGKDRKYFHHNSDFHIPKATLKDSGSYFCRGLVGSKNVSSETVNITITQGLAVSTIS
Protocol: as §1

binding result [1]	binding result [2]	binding result [3]	Binder
binds	–	–	aCD303-hIgG4-WT (antibody, MB101 (anti-CD303) expressed as a wild type IgG4; also called wt IgG4; wild type IgG4 antibody (aCD303-hIgG4)) heavy: not shown light: DIQMTQSPSSVSASVGDRVTITCRASQEISGYLSWYQQKPGKAIKRLIYAASTLDSGVPSRFSGSRSGTDFTLTISSLQSEDFATYYCLQYASYPPTFGGGTKLEIKGTVAAPSVFIFPPSDEQLKSGTASVVCLLNNFYPREAKVQWKVDNALQSGNSQESVTEQDSKDSTYSLSSTLTLSKADYEKHKVYACEVTHQGLSSPVTKSFNRGEC
binds	–	–	Pool 6 (aCD303-hIgG4-R409K) (antibody, Single mutation variant of MB101; also called anti-CD303 IgG4 R409K; IgG4 variant R409K) heavy: QVTLKESGPTLVKPTQTLTLTCTFSGFSLSTSGMGVGWIRQPPGKALEWLAHIWWEDDKYYNPSLKSRLTITKDTSKNQVVLTMTNMDPVDTATYYCTRNWDYYTMDYWGQGTTVTVSSASTKGPSVFPLAPCSRSTSESTAALGCLVKDYFPEPVTVSWNSGALTSGVHTFPAVLQSSGLYSLSSVVTVPSSSLGTKTYTCNVDHKPSNTKVDKRVESKYGPPCPSCPAPEFLGGPSVFLFPPKPKDTLMISRTPEVTCVVVDVSQEDPEVQFNWYVDGVEVHNAKTKPREEQFNSTYRVVSVLTVLHQDWLNGKEYKCKVSNKGLPSSIEKTISKAKGQPREPQVYTLPPSQEEMTKNQVSLTCLVKGFYPSDIAVEWESNGQPENNYKTTPPVLDSDGSFFLYSKLTVDKSRWQEGNVFSCSVMHEALHNHYTQKSLSLSLGK light: DIQMTQSPSSVSASVGDRVTITCRASQEISGYLSWYQQKPGKAIKRLIYAASTLDSGVPSRFSGSRSGTDFTLTISSLQSEDFATYYCLQYASYPPTFGGGTKLEIKGTVAAPSVFIFPPSDEQLKSGTASVVCLLNNFYPREAKVQWKVDNALQSGNSQESVTEQDSKDSTYSLSSTLTLSKADYEKHKVYACEVTHQGLSSPVTKSFNRGEC
–	binds	no binding	MB101 (aCD303-hIgG4-S241P/R409K) (antibody, Humanized IgG4 against BDCA-2 (CD303), made in CHO DG44 cells; also called MB101.10; anti-CD303 IgG4 S241P/R409K) heavy: not shown light: DIQMTQSPSSVSASVGDRVTITCRASQEISGYLSWYQQKPGKAIKRLIYAASTLDSGVPSRFSGSRSGTDFTLTISSLQSEDFATYYCLQYASYPPTFGGGTKLEIKGTVAAPSVFIFPPSDEQLKSGTASVVCLLNNFYPREAKVQWKVDNALQSGNSQESVTEQDSKDSTYSLSSTLTLSKADYEKHKVYACEVTHQGLSSPVTKSFNRGEC
